Assay results taken from patent US20150328292A1, “CASPASE POLYPEPTIDES HAVING MODIFIED ACTIVITY AND USES THEREOF” (BELLICUM PHARMACEUTICALS, INC., priority 2014, published 2015).
“Also recorded” adds a separate entry of the source. Where a SMILES comes first, the peptide text is derived from it. The star is where a group is joined. Cbz = O=C(OCc1ccccc1)*; CH2F = FC*

B1: D330A: ΔCasp9 (res. 135-416) D330A, SEQ ID NO: 24 (protein)
chain: GFGDVGALESLRGNADLAYILSMEPCGHCLIINNVNFCRESGLRTRTGSNIDCEKLRRRFSSLHFMVEVKGDLTAKKMVLALLELARQDHGALDCCVVVILSHGCQASHLQFPGAVYGTDGCPVSVEKIVNIFNGTSCPSLGGKPKLFFIQACGGEQKDHGFEVASTSPEDESPGSNPEPDATPFQEGLRTFDQLAAISSLPTPSDIFVSYSTFPGFVSWRDPKSGSWYVETLDDIFEQWAHSEDLQSLLLRVANAVSVKGIYKQMPGCFNFLRKKLFFKTS
B2: D330A-N405Q: ΔCasp9 (res. 135-416) D330A N405Q, SEQ ID NO: 28 (protein)
chain: GFGDVGALESLRGNADLAYILSMEPCGHCLIINNVNFCRESGLRTRTGSNIDCEKLRRRFSSLHFMVEVKGDLTAKKMVLALLELARQDHGALDCCVVVILSHGCQASHLQFPGAVYGTDGCPVSVEKIVNIFNGTSCPSLGGKPKLFFIQACGGEQKDHGFEVASTSPEDESPGSNPEPDATPFQEGLRTFDQLAAISSLPTPSDIFVSYSTFPGFVSWRDPKSGSWYVETLDDIFEQWAHSEDLQSLLLRVANAVSVKGIYKQMPGCFQFLRKKLFFKTS
B3: N405Q: ΔCasp9 (res. 135-416) N405Q, SEQ ID NO: 26 (protein)
chain: GFGDVGALESLRGNADLAYILSMEPCGHCLIINNVNFCRESGLRTRTGSNIDCEKLRRRFSSLHFMVEVKGDLTAKKMVLALLELARQDHGALDCCVVVILSHGCQASHLQFPGAVYGTDGCPVSVEKIVNIFNGTSCPSLGGKPKLFFIQACGGEQKDHGFEVASTSPEDESPGSNPEPDATPFQEGLRTFDQLDAISSLPTPSDIFVSYSTFPGFVSWRDPKSGSWYVETLDDIFEQWAHSEDLQSLLLRVANAVSVKGIYKQMPGCFQFLRKKLFFKTS
B4: D330E: chimeric modified caspase-9 polypeptide variant (protein)
chain: VDGFGDVGALESLRGNADLAYILSMEPCGHCLIINNVNFCRESGLRTRTGSNIDCEKLRRRFSSLHFMVEVKGDLTAKKMVLALLELARQDHGALDCCVVVILSHGCQASHLQFPGAVYGTDGCPVSVEKIVNIFNGTSCPSLGGKPKLFFIQACGGEQKDHGFEVASTSPEDESPGSNPEPDATPFQEGLRTFDQLEAISSLPTPSDIFVSYSTFPGFVSWRDPKSGSWYVETLDDIFEQWAHSEDLQSLLLRVANAVSVKGIYKQMPGCFNFLRKKLFFKTSASRA
B5: F404Y: chimeric modified caspase-9 polypeptide variant (protein)
chain: VDGFGDVGALESLRGNADLAYILSMEPCGHCLIINNVNFCRESGLRTRTGSNIDCEKLRRRFSSLHFMVEVKGDLTAKKMVLALLELARQDHGALDCCVVVILSHGCQASHLQFPGAVYGTDGCPVSVEKIVNIFNGTSCPSLGGKPKLFFIQACGGEQKDHGFEVASTSPEDESPGSNPEPDATPFQEGLRTFDQLDAISSLPTPSDIFVSYSTFPGFVSWRDPKSGSWYVETLDDIFEQWAHSEDLQSLLLRVANAVSVKGIYKQMPGCYNFLRKKLFFKTSASRA
B6: S196D: chimeric modified caspase-9 polypeptide variant (protein)
chain: VDGFGDVGALESLRGNADLAYILSMEPCGHCLIINNVNFCRESGLRTRTGSNIDCEKLRRRFSDLHFMVEVKGDLTAKKMVLALLELARQDHGALDCCVVVILSHGCQASHLQFPGAVYGTDGCPVSVEKIVNIFNGTSCPSLGGKPKLFFIQACGGEQKDHGFEVASTSPEDESPGSNPEPDATPFQEGLRTFDQLDAISSLPTPSDIFVSYSTFPGFVSWRDPKSGSWYVETLDDIFEQWAHSEDLQSLLLRVANAVSVKGIYKQMPGCFNFLRKKLFFKTSASRA
B7: F404W: chimeric modified caspase-9 polypeptide variant (protein)
chain: VDGFGDVGALESLRGNADLAYILSMEPCGHCLIINNVNFCRESGLRTRTGSNIDCEKLRRRFSSLHFMVEVKGDLTAKKMVLALLELARQDHGALDCCVVVILSHGCQASHLQFPGAVYGTDGCPVSVEKIVNIFNGTSCPSLGGKPKLFFIQACGGEQKDHGFEVASTSPEDESPGSNPEPDATPFQEGLRTFDQLDAISSLPTPSDIFVSYSTFPGFVSWRDPKSGSWYVETLDDIFEQWAHSEDLQSLLLRVANAVSVKGIYKQMPGCWNFLRKKLFFKTSASRA
B8: F406T: chimeric modified caspase-9 polypeptide variant (protein)
chain: VDGFGDVGALESLRGNADLAYILSMEPCGHCLIINNVNFCRESGLRTRTGSNIDCEKLRRRFSSLHFMVEVKGDLTAKKMVLALLELARQDHGALDCCVVVILSHGCQASHLQFPGAVYGTDGCPVSVEKIVNIFNGTSCPSLGGKPKLFFIQACGGEQKDHGFEVASTSPEDESPGSNPEPDATPFQEGLRTFDQLDAISSLPTPSDIFVSYSTFPGFVSWRDPKSGSWYVETLDDIFEQWAHSEDLQSLLLRVANAVSVKGIYKQMPGCFNTLRKKLFFKTSASRA

Key:
[1] = system: F-Casp9M.I.GFPhigh-transduced T cells; assay: annexin-V/7-AAD staining of CID-treated transduced CTLs; type: cell-based, human; details: 100 μM for 1 hour prior to adding CID
Procedure: CID (AP20187; ARIAD Pharmaceuticals) at indicated concentrations was added to transfected 293T cells or transduced CTLs. Adherent and nonadherent cells were harvested and washed with annexin binding buffer (BD Pharmingen, San Jose, Calif.). Cells were stained with annexin-V and 7-amino-actinomycin D (7-AAD) for 15 minutes according to the manufacturer's instructions (BD Pharmingen). Within 1 hour after staining, cells were analyzed by flow cytometry using CellQuest software (Becton Dickinson).

HEK293T/16 cells [2] = assay: SEAP reporter-based surrogate killing assay (basal activity and AP1903 IC50); type: cell-based, human; details: for relative SEAP activity Units (basal activity): no AP1903, higher SEAP = lower basal activity; for basal activity / basal signaling (in words): AP1903-independent SEAP activity, vs wild type
Summary of the method: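 HEK293T/16 cells transiently co-transfected with iCasp9 mutant plasmid (800 ng–2 μg) and SRα-driven SEAP plasmid (500 ng) per million cells. Supernatants heat-treated 65 °C, 45 min, then SEAP read by 4-MUP hydrolysis fluorescence (ex/em 355/460 nm). Lower SEAP signal indicates higher iCasp9 activity, i.e. cell killing.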

PG13 packaging cells = type: cell-based
Activated T cells = assay: Control of T cell proliferation in vitro over 10 days with AP1903; type: cell-based, human; details: AP1903 on days 0 and 4, 10 days
HEK293T/16 cells [3] = assay: Western blot of protein expression and proteolysis; type: cell-based, human
Procedure: The lysates were collected and lysed on ice for 30 min. After pelleting cell debris, protein concentrations from overlying supernatants were measured in 96-well plates with BCA™ Protein Assay as recommended by the manufacturer. 30 μg of proteins were boiled in Laemmli sample buffer (Bio-Rad, Hercules, Calif.) with 2.5% 2-mercaptoethanol for 5 min at 95° C. before being separated by Criterion TGX 10% Tris/glylcine protein gel. Membranes were probed with 1/1000 rabbit anti-human caspase-9 polyclonal antibody followed by 1/10,000 HRP-conjugated goat anti-rabbit IgG F(ab′)2 secondary antibody (Bio-Rad). Protein bands were detected using Supersignal West Femto chemiluminescent substrate. To ensure equivalent sample loading, blots were stripped at 65° C. for 1 hour with Restore PLUS Western Blot Stripping Buffer before labeling with 1/10,000 rabbit anti-actin polyclonal antibody. Unless otherwise stated, all the reagents were purchased from Thermo Scientific.

human CD3+CD19+ T cells = assay: AP1903 dose-dependent elimination in vivo of transduced T cells in NSG mice; set-up: species or system mouse; details: NSG mice, AP1903 0-5 mg/kg i.p., spleen
Procedure: T cells were transduced with SFG-iCasp9-2A-ΔCD19 retrovirus and injected i.v. into immune deficient mice (NSG). […] After an additional 24 hours, mice were sacrificed and lymphocytes from the spleen (FIG. 61A) and peripheral blood (FIG. 61B) were isolated and analyzed by flow cytometry for the frequency of human CD3+CD19+ T cells.
T cells were transduced with SFG-iCasp9-D330E-2A-ΔCD19 retrovirus and injected i.v. into immune deficient mice (NSG). […] After an additional 24 hours, mice were sacrificed and lymphocytes from the spleen (A) were isolated and analyzed by flow cytometry for the frequency of human CD3+CD19+ T cells.

Row | Molecule | relative SEAP activity Units (basal activity) (HEK293T/16 cells [2]; 1 μg iCasp9 per million cells) | relative SEAP activity Units (basal activity) (HEK293T/16 cells [2]; 2 μg iCasp9 per million cells) | basal activity / basal signaling (in words) (HEK293T/16 cells [2]) | CD19 mean fluorescence intensity (MFI) of transduced PG13 cells (PG13 packaging cells) | viral titers (PG13 packaging cells) | T cell proliferation and survival (Activated T cells) | further results
1 | COC(=O)C[C@H](NC(=O)[C@H](C)NC(=O)[C@@H](NC(=O)OCc1ccccc1)C(C)C)C(=O)CF [zVAD-fmk] (Cbz-Val-Ala-Asp(OMe)-CH2F) |  |  |  |  |  |  | effect on CID-induced apoptosis [1]: inhibited
2 | B1 | 148928 | 136863 | low to undetectable basal activity; also recorded: lowered basal activity, but not as low as in N405Q; also recorded: less basal activity than wild type caspase-9; also recorded: lower basal activity; also recorded: lower basal signaling compared to the wild-type caspase-9; also recorded: statistically lower basal signaling | enhanced CD19 mean fluorescence intensity | higher viral titers | halted T cell proliferation | 
3 | B2 | 205772 | 174366 | intermediate; also recorded: lower basal signaling compared to the wild-type caspase-9 |  |  |  | basal activity / basal signaling (in words) (HEK293T/16 cells [2]; listed as D330A N405Q): low to undetectable basal activity; cleavage in response to AP1903 (HEK293T/16 cells [3]): impaired cleavage
4 | B3 | 179081 | 175529 |  | higher levels of CD19; also recorded: enhanced CD19 mean fluorescence intensity; also recorded: higher CD19 MFIs than the other cohorts | higher viral titers | indistinguishable from wild type caspase-9 polypeptide or D330A | cleavage in response to AP1903 (HEK293T/16 cells [3]): impaired cleavage
5 | B4 |  |  | less basal activity than wild type caspase-9; also recorded: statistically lower basal signaling | enhanced CD19 mean fluorescence intensity | higher viral titers |  | in vivo cytotoxicity profile in response to AP1903 (human CD3+CD19+ T cells): titratable in vivo
6 | B5 |  |  | lower basal signaling than WT |  |  | indistinguishable from wild type caspase-9 polypeptide or D330A | 
7 | B6 |  |  | lower basal activity |  |  |  | 
8 | B7 |  |  | lower basal signaling than WT |  |  |  | 
9 | B8 |  |  | lower basal signaling than WT |  |  |  | 
